# Measurements as given in publication PMC6557989, “The Molecular Basis of Human IgG-Mediated Enhancement of C4b-Binding Protein Recruitment to Group A Streptococcus” (Frontiers in Immunology, 2019).
# T1: Protein H (Streptococcus pyogenes (strain AP1), ^125I-labelled in the plate binding assay; Alexa-488 succinimidyl ester-labelled in thermophoresis; unlabelled elsewhere)
# T1 construct: Protein H, surface protein of the M protein family of Streptococcus pyogenes AP1; recombinant; theoretical mass of the monomer 42 kDa; written as the single chain because its self-association is itself measured; also called ^125I-Protein H; source: E. coli, expressed and purified (previously described protocols)
# T1 chain: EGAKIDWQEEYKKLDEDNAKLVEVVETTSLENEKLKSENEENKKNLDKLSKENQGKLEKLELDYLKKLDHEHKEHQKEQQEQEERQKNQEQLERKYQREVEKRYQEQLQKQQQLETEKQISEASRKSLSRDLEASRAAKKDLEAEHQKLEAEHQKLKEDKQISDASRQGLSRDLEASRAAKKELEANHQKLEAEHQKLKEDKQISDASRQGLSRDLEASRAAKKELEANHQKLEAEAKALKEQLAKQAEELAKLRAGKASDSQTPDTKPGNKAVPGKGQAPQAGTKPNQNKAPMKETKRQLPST
# Target: T1, Protein H
# Test: native gel or EMSA; native horizontal agarose gel, 75 mM sodium barbital pH 8.6, Coomassie blue; two proteins pre-incubated in PBS 1 h at 37°C (ratios as C4BP:IgG:Protein H 1:10:10)
# Conditions: both partners purified
binder,measurement,value
"Denosumab (monoclonal human IgG2) (antibody, V domains shown, constant region of the human IgG2 heavy chain; it is here the ligand of Protein H through its Fc; Recombinantly expressed drug antibody; also called hu-IgG2; source: bought: Amgen) VH: EVQLLESGGGLVQPGGSLRLSCAASGFTFSSYAMSWVRQAPGKGLEWVSGITGSGGSTYYADSVKGRFTISRDNSKNTLYLQMNSLRAEDTAVYYCAKDPGTTVIMSWFDPWGQGTLVTVSS VL: EIVLTQSPGTLSLSPGERATLSCRASQSVRGRYLAWYQQKPGQAPRLLIYGASSRATGIPDRFSGSGSGTDFTLTISRLEPEDFAVFYCQQYGSSPRTFGQGTKVEIK",binding result,binds
